# T1: 2-5A-d-R peptide
# T1 chain: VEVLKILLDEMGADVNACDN
# T2: CAD, HIF C-terminal transactivation domain standard peptide
# T2 chain: DESGLPQLTSYDCEVNAPI
# T3: FEM-1 21 mer peptide
# T3 chain: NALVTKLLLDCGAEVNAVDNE
# T4: FGIF peptide
# T4 chain: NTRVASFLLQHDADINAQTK
# T5: GABPbeta peptide
# T5 chain: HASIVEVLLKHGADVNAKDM
# T6: GST HIF-1α 786-826, Q16665
# T6 chain: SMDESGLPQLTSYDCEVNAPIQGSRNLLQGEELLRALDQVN
# T7: GST p105 ARD
# T7 chain: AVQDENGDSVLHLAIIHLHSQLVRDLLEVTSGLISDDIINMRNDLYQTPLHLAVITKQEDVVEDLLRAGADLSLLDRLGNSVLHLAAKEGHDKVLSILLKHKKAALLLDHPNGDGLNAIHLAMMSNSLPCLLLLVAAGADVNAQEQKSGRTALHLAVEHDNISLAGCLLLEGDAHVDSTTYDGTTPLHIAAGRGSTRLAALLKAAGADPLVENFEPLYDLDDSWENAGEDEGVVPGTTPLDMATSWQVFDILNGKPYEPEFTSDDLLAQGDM
# T8: Gankyrin/p28-II peptide
# T8 chain: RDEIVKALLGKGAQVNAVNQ
# T9: IkBa 21 mer peptide
# T9 chain: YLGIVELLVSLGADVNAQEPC
# T10: IkappaB-alpha, recombinant protein, P25963
# T10 chain: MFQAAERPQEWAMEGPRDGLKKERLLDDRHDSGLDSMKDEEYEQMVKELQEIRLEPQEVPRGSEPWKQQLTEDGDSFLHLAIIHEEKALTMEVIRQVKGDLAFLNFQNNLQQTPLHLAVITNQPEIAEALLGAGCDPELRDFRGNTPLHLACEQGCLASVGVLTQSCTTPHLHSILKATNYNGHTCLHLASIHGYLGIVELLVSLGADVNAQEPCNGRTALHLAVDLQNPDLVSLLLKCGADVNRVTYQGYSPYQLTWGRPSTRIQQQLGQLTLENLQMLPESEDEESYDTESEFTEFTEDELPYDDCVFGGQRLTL
# T11: M110 peptide
# T11 chain: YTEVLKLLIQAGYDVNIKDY
# T12: Myotrophin peptide
# T12 chain: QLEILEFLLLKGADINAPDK
# T13: Tankyrase 1/2 peptide
# T13 chain: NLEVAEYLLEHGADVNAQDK
# T14: p105 21 mer peptide
# T14 chain: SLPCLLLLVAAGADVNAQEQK
# T15: p105 ARD (ankyrin repeat domain of p105, amino acid residues 537-809), free form
# T15 chain: T7 chain
# T16: p19-INK-4d peptide
# T16 chain: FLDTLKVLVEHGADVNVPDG
# B1: factor inhibiting hypoxia-inducible factor (FIH), highly purified recombinant (protein)
# chain: MAATAAEAVASGSGEPREEAGALGPAWDESQLRSYSFPTRPIPRLSQSDPRAEELIENEEPVVLTDTNLVYPALKWDLEYLQENIGNGDFSVYSASTHKFLYYDEKKMANFQNFKPRSNREEMKFHEFVEKLQDIQQRGGEERLYLQQTLNDTVGRKIVMDFLGFNWNWINKQQGKRGWGQLTSNLLLIGMEGNVTPAHYDEQQNFFAQIKGYKRCILFPPDQFECLYPYPVHHPCDRQSQVDFDNPDYERFPNFQNVVGYETVVGPGDVLYIPMYWWHHIESLLNGGITITVNFWYKGAPTPKRIEYPLKAHQKVAIMRNIEKMLGEALGNPQEVGPLLNTMIKGRYN
# Assays:
# 2-5A-d-R peptide = molecular target: T1, 2-5A-d-R peptide
# [1] = molecular target: T2, CAD, HIF C-terminal transactivation …
# FEM-1 21 mer peptide = molecular target: T3, FEM-1 21 mer peptide
# FGIF peptide = molecular target: T4, FGIF peptide
# GABPbeta peptide = molecular target: T5, GABPbeta peptide
# [2] = molecular target: T6, GST HIF-1α 786-826, Q16665; settings: scale: % activity relative to GST HIF-1α 786-826
# [3] = molecular target: GST p105 ARD N to A mutant; settings: scale: % activity relative to GST HIF-1α 786-826
# GST p105 ARD = molecular target: T7, GST p105 ARD; settings: scale: % activity relative to GST HIF-1α 786-826
# Gankyrin/p28-II peptide = molecular target: T8, Gankyrin/p28-II peptide
# IkBa 21 mer peptide = molecular target: T9, IkBa 21 mer peptide
# [4] = molecular target: T10, IkappaB-alpha, recombinant protein, …
# M110 peptide = molecular target: T11, M110 peptide
# Myotrophin peptide = molecular target: T12, Myotrophin peptide
# Tankyrase 1/2 peptide = molecular target: T13, Tankyrase 1/2 peptide
# p105 21 mer peptide = molecular target: T14, p105 21 mer peptide
# [5] = molecular target: T15, p105 ARD (ankyrin repeat domain of …); settings: scale: % activity relative to GST HIF-1α 786-826
# p19-INK-4d peptide = molecular target: T16, p19-INK-4d peptide
# [6] = scale: % activity relative to GST HIF-1α 786-826
protein,measurement,setting,value
B1,Activity + FIH (relative to synthetic HIF1alphaCAD) (relative to synthetic HIF1alphaCAD),2-5A-d-R peptide,27.8
same,Hydroxylation of peptide observed by LC-MS analysis,2-5A-d-R peptide,Yes
same,Activity + FIH (relative to synthetic HIF1alphaCAD) (relative to synthetic HIF1alphaCAD),[1],100
same,Hydroxylation of peptide observed by LC-MS analysis,[1],Yes
same,% activity relative to GST HIF-1α 786-826 (decarboxylation of 2OG),[1]; [6],75
same,2D-NMR spectra of the peptide after incubation with FIH,FEM-1 21 mer peptide,consistent with asparaginyl hydroxylation
same,direct peptide substrate hydroxylation by LC-MS,FEM-1 21 mer peptide,both the FEM-1 and IkappaB-alpha peptides were observed to be hydroxylated under standard assay conditions
same,% activity relative to GST HIF-1α 786-826 (decarboxylation of 2OG),FEM-1 21 mer peptide; [6],89
same,Activity + FIH (relative to synthetic HIF1alphaCAD) (relative to synthetic HIF1alphaCAD),FGIF peptide,168
same,Hydroxylation of peptide observed by LC-MS analysis,FGIF peptide,Yes
same,Activity + FIH (relative to synthetic HIF1alphaCAD) (relative to synthetic HIF1alphaCAD),GABPbeta peptide,107
same,Hydroxylation of peptide observed by LC-MS analysis,GABPbeta peptide,Yes
same,% activity relative to GST HIF-1α 786-826 (decarboxylation of 2OG),[2],100
same,% activity relative to GST HIF-1α 786-826 (decarboxylation of 2OG),[3],12
same,% activity relative to GST HIF-1α 786-826 (decarboxylation of 2OG),GST p105 ARD,129
same,Activity + FIH (relative to synthetic HIF1alphaCAD) (relative to synthetic HIF1alphaCAD),Gankyrin/p28-II peptide,116
same,Hydroxylation of peptide observed by LC-MS analysis,Gankyrin/p28-II peptide,Yes
same,direct peptide substrate hydroxylation by LC-MS,IkBa 21 mer peptide,both the FEM-1 and IkappaB-alpha peptides were observed to be hydroxylated under standard assay conditions
same,% activity relative to GST HIF-1α 786-826 (decarboxylation of 2OG),IkBa 21 mer peptide; [6],111
same,MALDI-TOF mass spectrometry of tryptic fragments after incubation with FIH,[4],The results demonstrated hydroxylation of the fragment
same,% activity relative to GST HIF-1α 786-826 (decarboxylation of 2OG),[4]; [6],144
same,Activity + FIH (relative to synthetic HIF1alphaCAD) (relative to synthetic HIF1alphaCAD),M110 peptide,122
same,Hydroxylation of peptide observed by LC-MS analysis,M110 peptide,Yes
same,Activity + FIH (relative to synthetic HIF1alphaCAD) (relative to synthetic HIF1alphaCAD),Myotrophin peptide,154
same,Hydroxylation of peptide observed by LC-MS analysis,Myotrophin peptide,Yes
same,Activity + FIH (relative to synthetic HIF1alphaCAD) (relative to synthetic HIF1alphaCAD),Tankyrase 1/2 peptide,107
same,Hydroxylation of peptide observed by LC-MS analysis,Tankyrase 1/2 peptide,Yes
same,site of hydroxylation by LC-MS,Tankyrase 1/2 peptide,LC-MS analyses located the site of hydroxylation to the internal asparagine residue in the case of tankyrase
same,2D-NMR spectra of the peptide after incubation with FIH,p105 21 mer peptide,consistent with asparaginyl hydroxylation
same,% activity relative to GST HIF-1α 786-826 (decarboxylation of 2OG),p105 21 mer peptide; [6],100
same,% activity relative to GST HIF-1α 786-826 (decarboxylation of 2OG),[5],164
same,MALDI ToF mass spectrometry of the tryptic digest after incubation with FIH,p105 ARD L668K mutant,"following incubation with FIH, a peak at 1,542 Da appears in the spectrum that corresponds to the hydroxylated 1,526 Da peptide i.e. +16 Da"
same,Activity + FIH (relative to synthetic HIF1alphaCAD) (relative to synthetic HIF1alphaCAD),p19-INK-4d peptide,124
same,Hydroxylation of peptide observed by LC-MS analysis,p19-INK-4d peptide,Yes

# From US20080227848
